Where a chain is given by its changes, count along the chain named. Names and notes keep the numbering of the source. Values joined by “and” are separate entries in the source; they are usually repeats but may differ in a detail not shown here. Equal values may be shown once.
B1: UUKV-N protein double mutant QQ244,245AA, mammalian two-hybrid fusions (natural protein)
chain: MAMPENWVRFAIEISDAQWEEEEIREFINLFQYQGFDAAVVLSRIFELAKKADLSRDQMLRDIRALITLHLTRGNKLSSIEKRLSEEGKKEFALLKARYQLVDKAKEAADLTLSRIAIANAGLTCRILPQVVAHTAVTRSRMESLSADYPVCMMHNAFAGLIDETLPEDSIKALVDAHRLYLLEFSRTINVKHRGMEAKEILDANDSALQAGLASSFLTPSQKRAYLLSFKLVDGNGKVNKAVAAAATVLRSLI
notes: Uukuniemi virus nucleocapsid (N) protein, 254 aa residues; source: HeLa, transfected, mammalian two-hybrid fusions
B2: UUKV-N protein point mutant Y33A, mammalian two-hybrid fusions (natural protein)
chain: B1 chain with Y33A, A244Q, A245Q
notes: Uukuniemi virus nucleocapsid (N) protein, 254 aa residues; Mutation introduced into both the DNA-BD and the DNA-AD fusion; no chain carries both domains; also called negative control mutant; source: HeLa, transfected, mammalian two-hybrid fusions
B3: UUKV-N protein point mutant I14A, mammalian two-hybrid fusions (natural protein)
chain: B1 chain with I14A, A244Q, A245Q
notes: Uukuniemi virus nucleocapsid (N) protein, 254 aa residues; Mutation introduced into both the DNA-BD and the DNA-AD fusion; no chain carries both domains; source: HeLa, transfected, mammalian two-hybrid fusions
B4: UUKV-N protein point mutant F27A, mammalian two-hybrid fusions (natural protein)
chain: B1 chain with F27A, A244Q, A245Q
notes: as for B3
B5: UUKV-N protein point mutant R251A, mammalian two-hybrid fusions (natural protein)
chain: B1 chain with A244Q, A245Q, R251A
notes: as for B1
B6: UUKV-N protein point mutant F10A, mammalian two-hybrid fusions (natural protein)
chain: B1 chain with F10A, A244Q, A245Q
notes: as for B3
B7: UUKV-N protein point mutant F31A, mammalian two-hybrid fusions (natural protein)
chain: B1 chain with F31A, A244Q, A245Q
notes: as for B3
B8: UUKV-N protein point mutant I24A, mammalian two-hybrid fusions (natural protein)
chain: B1 chain with I24A, A244Q, A245Q
notes: as for B3
B9: UUKV-N protein point mutant W19A, mammalian two-hybrid fusions (natural protein)
chain: B1 chain with W19A, A244Q, A245Q
notes: as for B3
B10: UUKV-N protein point mutant W7A, mammalian two-hybrid fusions (natural protein)
chain: B1 chain with W7A, A244Q, A245Q
notes: as for B3
B11: Uukuniemi virus nucleocapsid (N) protein, full-length wild type (pcDNA-UUKV-N) (natural protein)
chain: B1 chain with A244Q, A245Q
notes: Uukuniemi virus nucleocapsid (N) protein, 254 aa residues; No tag is mentioned; detected with a rabbit antiserum against UUKV-N; also called UUKV-N protein; wt N protein; source: COS-7, transfected (pcDNA-UUKV-N), in lysate

Target: the molecule itself
Assay: two-hybrid; mammalian two-hybrid in HeLa cells: GAL4 DNA-BD (pM) and VP16 DNA-AD (pVP) fusions, pG5luc firefly luciferase normalised to Renilla luciferase, 24 h post-transfection; percent of the wt N-N interaction

Protein	M2H % of interaction [%]
B1	> 100
B2	> 100
B3	60 ± 18
B4	> 100
B5	96 ± 11
B6	34 ± 4
B7	23 ± 5
B8	56 ± 12
B9	> 100
B10	> 100

Target: the molecule itself
Assay: cross-linking; lysates of transfected COS-7 cells (PBS pH 7.4, freeze-thawed), 0.1 or 0.5 mM BS3, 30 min at room temperature, quenched with 50 mM Tris-HCl pH 7.5; 10% SDS-PAGE, immunoblot with rabbit antiserum against UUKV-N

Protein	stoichiometry N
B11	2 and 3

From publication PMC2925374, “Oligomerization of Uukuniemi virus nucleocapsid protein” (Virology Journal, 2010)
